Assay results reported in PMC3491057, “Proliferating Cell Nuclear Antigen (PCNA) Interactions in Solution Studied by NMR” (PLoS ONE, 2012).
“Also recorded” adds a separate entry of the source.

Columns and labels:
PCNA [1] = tested on: PCNA; parameters: method as in PMID 20460379; conditions: cited from earlier work
[2] = tested on: PCNA C-terminal fragment 137–261; conditions: yeast two-hybrid; cited from earlier work
Description: MCL-1 has a sequence that meets this minimal PIP-box motif (^221 […] ^228) at the end of the BH3 region in its globular C-terminal domain.

PCNA [3] = conditions: co-immunoprecipitation, lysates from co-transfected human embryonic cells and native HeLa cells; cited from earlier work
Description: MCL-1 is a member of the pro-survival B-cell lymphoma-leukemia-2 (Bcl-2) family that preserves mitochondrial integrity during apoptosis. It consists of an intrinsically disordered, 170 residue long N-terminal region and a C-terminal globular domain with three Bcl-2 homology (BH) regions. […] MCL-1 has a sequence that meets this minimal PIP-box motif (^221 […] ^228) at the end of the BH3 region in its globular C-terminal domain.

human PCNA = target: T1, human PCNA (Homo sapiens, UniProt P12004); test: NMR (TROSY) examination of the interaction of PCNA with MCL-1 construct; assay type: binding; conditions: 35°C; for binding to PCNA (chemical shift or intensity changes): 50 µM 2H-15N PCNA, 220 µM MCL-1 construct (4.4 equivalents), 10 mM Tris pH 7.4, 250 mM NaCl, 1 mM EDTA, 0.5 mM DTT, 800 MHz
T1 construct: His6 tag with PreScission protease cleavage site (N, cleaved yes); made in house; host or cells: E. coli
T1 sequence (P12004 whole entry): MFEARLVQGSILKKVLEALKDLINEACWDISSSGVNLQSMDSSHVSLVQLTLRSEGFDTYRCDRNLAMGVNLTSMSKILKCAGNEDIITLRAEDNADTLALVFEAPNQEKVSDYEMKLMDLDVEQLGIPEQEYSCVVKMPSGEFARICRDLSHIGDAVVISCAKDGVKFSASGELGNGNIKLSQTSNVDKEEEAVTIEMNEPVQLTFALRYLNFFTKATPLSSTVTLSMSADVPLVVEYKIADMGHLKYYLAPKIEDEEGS
Method: The human MCL-1 ΔN151−ΔC7 construct cloned in vector pET32a was expressed and purified as described. Briefly, the protein was expressed in E. coli BL21(DE3) cells with a histidine-tag and a Tev protease site at the N-terminus, and was purified by two chromatography steps: immobilized nickel ion affinity and size exclusion.
Unless indicated otherwise, the NMR spectra were recorded on a Bruker AV600 spectrometer equipped with a cryogenically-cooled triple resonance z-gradient probe at 35°C on PCNA samples with or without ligands in PBS pH 7.0. The spectra in Figures S2, S4, S7 and S8 were recorded on a Bruker AV800 spectrometer with a cryogenically-cooled triple resonance z-gradient probe on samples and buffers described in the corresponding legends. TROSY-based 3D HNCO, HN(CA)CO, HNCACB, HN(CO)CACB, and HNCA [21] were recorded for resonance assignment. Spectra were processed with TopSpin (Bruker) or with NMRPipe and analyzed using NMRView. Peak intensities were evaluated by the peak heights measured using CCPNMR [24].
We have monitored the binding of MCL-1 to PCNA by NMR using an MCL-1 construct that lacks most of the disordered N-terminal region but retains the C-terminal domain correctly folded. […] As no significant CSPs were measured, it is not possible to confirm the interaction, but a lower limit for the dissociation constant of the putative complex can be estimated. Assuming an equimolar complex, and that we should be able to detect significant changes when at least 20% of PCNA is bound to MCL-1 [42], a lower limit of the dissociation constant can be calculated. […]
Supplementary file pone.0048390.s007.tif: Figure S7 NMR examination of the interaction of PCNA with MCL-1. ^1H-^15N TROSY spectra of 50 µM uniformly labeled ^2H-^15N PCNA alone (black) or in the presence (red) of 220 µM of the ΔN151−ΔC7 fragment of human MCL-1 (1∶4.4 ratio on a PCNA monomer basis). The spectra were recorded in 10 mM Tris pH 7.4, 250 mM NaCl, 1 mM EDTA, 0.5 mM DTT at 800 MHz and 35°C. […]

B1: Gadd45α: Growth arrest and DNA damage 45 alpha protein (protein, UniProt P24522 1-165, looked up)
Growth arrest and DNA …: MTLEEFSAGEQKTERMDKVGDALEEVLSKALSQRTITVGVYEAAKLLNVDPDNVVLCLLAADEDDDRDVALQIHFTLIQAFCCENDINILRVSNPGRLAELLLLETDAGPAASEGAEQPPDLHCVLVTNPHSSQWKDPALSQLICFCRESRYMDQWVPVINLPER
PCNA [1]
  direct interaction with PCNA in solution: extremely weak

B2: MCL-1: Myeloid cell leukemia 1 protein, literature interaction with PCNA (protein)
chain: NNTSTDGSLPSTPPPAEEEEDELYRQSLEIISRYLREQATGAKDTKPMGRSGATSRKALETLRRVGDGVQRNHETAFQGMLRKLDIKNEDDVKSLSRVMIHVFSDGVTNWGRIVTLISFGAFVAKHLKTINQESCIEPLAESITDVLVRTKRDWLVKQRGWDGFVEFFHVEDLEGGIRNVLLAFAGVAGVGA
modifications: left off: His tag, N-terminal, kept
[2]
  interaction with PCNA fragment 137–261: sufficient for the interaction with MCL-1
PCNA [3]
  interaction with PCNA: interact with PCNA; also recorded: detected by co-immunoprecipitation

B3: ΔN151−ΔC7: MCL-1 residues 152–343 plus an N-terminal histidine-tag (protein)
chain: B2 chain
modifications: left off: His tag, N-terminal, kept
Human PCNA
  binding to PCNA (chemical shift or intensity changes): did not observe any indication of binding
Human PCNA; listed as Bcl-2 domain of MCL-1
  binding to PCNA (chemical shift or intensity changes): did not detect binding
Human PCNA; assuming equimolar complex and detection at ≥20% PCNA bound, 50 µM PCNA, 220 µM MCL-1 construct, read-out: dissociation constant (lower limit)
  Kd: > 840 µM
